Measured values: US20130344055A1, “ANTIMICROBIAL AGENTS” (priority 2010, published 2013)

What was measured:
[1] = test system: P. aeruginosa PAO1p cells; test: Antimicrobial activity of different peptide stretches; conditions: 30 minutes at room temperature; for Antimicrobial effects against P. aeruginosa (relative inactivation): peptide at 3 μM/L (equimolar to AMP)
Description: The bacteria colonies on the agar plates were counted after an overnight incubation at 37° C. Based on the counted cell numbers the antibacterial activity as the relative inactivation in logarithmic units (=log 10N0/Ni with N0=number of untreated cells (of the control) and Ni=number of treated cells, both counted after incubation) is calculated. The reduction in the number of bacteria colonies after treatment with a peptide stretch is indicative for an antimicrobial activity of the peptide stretch, because the bacterial cells are lysed due to the treatment with the peptide stretch. All samples were replicated in four fold.

Salmonella bacteria = test: In vitro antibacterial activity of STM0016 fusion variants; assay type: cell-based; conditions: with EDTA 0.5 mM; 10^6 cells/ml; 30 minutes at RT
Description: Exponential growing Gram-negative bacterial cells (OD600 nm=0.6) were 100-fold diluted to a final density of about 10^6 cells/ml in 5 mM HEPES pH 7.4 and incubated for 30 minutes at room temperature without shaking with the different modified OBPgpLYS variants (in Elution Buffer in an end concentration of 1500 nM). After incubation cell suspensions and as a control untreated bacterial cells without any added modified OBPgpLYS variant were diluted three times (respectively 10^5-10^4-10^3 cells/ml) in 1× concentrated PBS buffer and 100 μl of each dilution was plated out on LB-medium. […] All samples were replicated in threefold. Averages +/− standard deviations are represented.
The purification of the fusion proteins and the antimicrobial activity assay was performed as described in Example 1.

Listeria bacteria = test: In vitro antibacterial activity of Ply511 fusion variants; assay type: cell-based; conditions: with EDTA 0.5 mM; 10^6 cells/ml; 30 minutes at RT

Molecule: PK2: polycationic peptide KRKKRKKRKRSKRKKRKKRK
- Antimicrobial activity against P. aeruginosa (relative inactivation) [1]: same antimicrobial activity against P. aeruginosa as SMAP-29 used in a concentration of 3 mmol/L
- Antimicrobial effects against P. aeruginosa (relative inactivation) [1]: no or only minor antimicrobial effects

Molecule: PK: polycationic peptide KRKKRKKRK
- Antimicrobial effects against P. aeruginosa (relative inactivation) [1]: no or only minor antimicrobial effects

Molecule: STM0016-Melittin: STM0016 fusion variant with one peptide stretch, Melittin
- Average log reduction, Salmonella (Salmonella bacteria): +/− (+/−: <1 log)

B1: P1y511-Magainin: Ply511 fusion variant with one peptide stretch, Magainin (protein)
chain: MVKYTVENKIIAGLPKGKLKGANFVIAHETANSKSTIDNEVSYMTRNWKNAFVTHFVGGGGRVVQVANVNYVSWGAGQYANSYSYAQVELCRTSNATTFKKDYEVYCQLLVDLAKKAGIPITLDSGSKTSDKGIKSHKWVADKLGGTTHQDPYAYLSSWGISKAQFASDLAKVSGGGNTGTAPAKPSTPAPKPSTPSTNLDKLGLVDYMNAKKMDSSYSNRDKLAKQYGIANYSGTASQNTTLLSKIKGGAPKPSTPAPKPSTSTAKKIYFPPNKGNWSVYPTNKAPVKANAIGAINPTKFGGLTYTIQKDRGNGVYEIQTDQFGRVQVYGAPSTGAVIKKGIGKFLHSAKKFGKAFVGEIMNS
- Average log reduction, Listeria (Listeria bacteria): ++ (++: 2-3 log)

B2: P1y511: endolysin Ply511 (protein)
chain: MVKYTVENKIIAGLPKGKLKGANFVIAHETANSKSTIDNEVSYMTRNWKNAFVTHFVGGGGRVVQVANVNYVSWGAGQYANSYSYAQVELCRTSNATTFKKDYEVYCQLLVDLAKKAGIPITLDSGSKTSDKGIKSHKWVADKLGGTTHQDPYAYLSSWGISKAQFASDLAKVSGGGNTGTAPAKPSTPAPKPSTPSTNLDKLGLVDYMNAKKMDSSYSNRDKLAKQYGIANYSGTASQNTTLLSKIKGGAPKPSTPAPKPSTSTAKKIYFPPNKGNWSVYPTNKAPVKANAIGAINPTKFGGLTYTIQKDRGNGVYEIQTDQFGRVQVYGAPSTGAVIKK
modifications: Listeria monocytogenes Phage A511
notes: endolysin Ply511
- Average log reduction, Listeria (Listeria bacteria): + (+: 1 log)

B3: STM0016-LL37: STM0016 fusion variant with one peptide stretch, LL37 (protein)
chain: MNPIIDGIIALEGGYVFNPKDKGGATHWGITEATARAHGYAGDMRDLTHAEAYAILEEDYWIKPGFDVISTLSWPVSFELCDAAVNIGAYHPSAWLQRWLNVFNHEGKRYPDIHVDGNIGPRTLAALEHYLAWRGQEGEAVLVKALNCSQGTYYLNVAEKNHNNEQFIYGWIKNRVTLLGDFFRKSKEKIGKEFKRIVQRIKDFLRNLVPRTES
- Average log reduction, Salmonella (Salmonella bacteria): + (+: 1 log)

B4: P1y511-BuforinII: Ply511 fusion variant with one peptide stretch, Buforin II (protein)
chain: MVKYTVENKIIAGLPKGKLKGANFVIAHETANSKSTIDNEVSYMTRNWKNAFVTHFVGGGGRVVQVANVNYVSWGAGQYANSYSYAQVELCRTSNATTFKKDYEVYCQLLVDLAKKAGIPITLDSGSKTSDKGIKSHKWVADKLGGTTHQDPYAYLSSWGISKAQFASDLAKVSGGGNTGTAPAKPSTPAPKPSTPSTNLDKLGLVDYMNAKKMDSSYSNRDKLAKQYGIANYSGTASQNTTLLSKIKGGAPKPSTPAPKPSTSTAKKIYFPPNKGNWSVYPTNKAPVKANAIGAINPTKFGGLTYTIQKDRGNGVYEIQTDQFGRVQVYGAPSTGAVIKKTRSSRAGLQFPVGRVHRLLRK
- Average log reduction, Listeria (Listeria bacteria): ++ (++: 2-3 log)

B5: P1y511-BuforinII-Magainin: Ply511 with Buforin II C-terminal of the enzyme, followed by Magainin (protein)
chain: MVKYTVENKIIAGLPKGKLKGANFVIAHETANSKSTIDNEVSYMTRNWKNAFVTHFVGGGGRVVQVANVNYVSWGAGQYANSYSYAQVELCRTSNATTFKKDYEVYCQLLVDLAKKAGIPITLDSGSKTSDKGIKSHKWVADKLGGTTHQDPYAYLSSWGISKAQFASDLAKVSGGGNTGTAPAKPSTPAPKPSTPSTNLDKLGLVDYMNAKKMDSSYSNRDKLAKQYGIANYSGTASQNTTLLSKIKGGAPKPSTPAPKPSTSTAKKIYFPPNKGNWSVYPTNKAPVKANAIGAINPTKFGGLTYTIQKDRGNGVYEIQTDQFGRVQVYGAPSTGAVIKKTRSSRAGLQFPVGRVHRLLRKGIGKFLHSAKKFGKAFVGEIMNS
- Average log reduction, Listeria (Listeria bacteria): +++ (+++: 4 or more logs)
